For orientation: IC50 means the concentration at which inhibition is half-maximal. Lower therefore signals greater potency.

In experiment [1] the target is T1, CCR7-eGFP stably expressed on 300-19 pre-B cells (human, UniProt P32248 25-378).
T1 chain: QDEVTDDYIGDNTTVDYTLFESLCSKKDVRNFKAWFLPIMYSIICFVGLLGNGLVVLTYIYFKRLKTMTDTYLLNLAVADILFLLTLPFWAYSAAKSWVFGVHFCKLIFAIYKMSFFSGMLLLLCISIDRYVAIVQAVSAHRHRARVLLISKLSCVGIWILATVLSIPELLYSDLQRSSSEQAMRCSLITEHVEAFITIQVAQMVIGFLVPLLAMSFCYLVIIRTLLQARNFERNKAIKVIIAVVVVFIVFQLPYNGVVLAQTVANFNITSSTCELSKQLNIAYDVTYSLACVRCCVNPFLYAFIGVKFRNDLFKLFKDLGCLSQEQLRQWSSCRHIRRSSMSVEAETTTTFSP
The experiment in a line: FACS; 37°C, competition with 25 nM CCL19-Dy649P1 (printed as EC50; partial inhibition). Background: In flow cytometry, cells or beads pass a laser one at a time.

In experiment [2] the target is T1, CCR7-eGFP stably expressed on 300-19 …. The experiment in a line: FACS; 37°C, competition with 25 nM CCL19-Dy649P1 (printed as EC50).
Experiment [3] has the same target. Briefly: FACS; 10°C, competition with 25 nM CCL19-Dy649P1 (printed as EC50).

B1: CXCL14 (synthetic, unlabeled human CXCL14) (ligand)
chain: SKCKCSRKGPKIRYSDVKKLEMKPKYPHCEEKMVIITTKSVSRYRGQEHCLHPKLQSTKRFIKWYNAWNEKRRVYEE
In experiment [1], B1 gave an IC50 of 9.2 nM.

B2: CCL19 (synthetic, unlabeled human CCL19) (ligand)
chain: GTNDAEDCCLSVTQKPIPGYIVRNFHYLLIKDGCRVPAVVFTTLRGRQLCAPPDQPWVERIIQRLQRTSAKMKRRSS
B2: the IC50 came to 14.1 nM in experiment [2] and 10.1 nM in experiment [3].

These data come from article PMC7570948 (2020).
